Results as given in US20190249141A1.

Key:
[1] = target: recombinant murine CD40L (M112-L260) with N-terminal HA tag (murine); assay: loading of HA-tagged CD40L on anti-HA antibody microbeads; protein in the supernatant (A280) measured before and after incubation
[2] = target: CD40 on mouse splenic B cells (mouse) (UniProt P27512); assay: cell-based or functional assay
Sequence of UniProt P27512 (P27512 20-289): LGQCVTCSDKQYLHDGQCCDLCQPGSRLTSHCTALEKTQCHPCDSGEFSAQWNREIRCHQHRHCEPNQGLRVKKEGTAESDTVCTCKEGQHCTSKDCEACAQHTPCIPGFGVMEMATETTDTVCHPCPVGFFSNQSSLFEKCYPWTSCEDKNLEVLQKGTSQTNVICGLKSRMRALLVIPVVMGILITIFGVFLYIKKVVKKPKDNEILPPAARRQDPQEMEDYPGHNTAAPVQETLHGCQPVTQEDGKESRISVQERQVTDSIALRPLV

Substance	maximum surface density of CD40L on anti-HA microbeads (molecules µm^-2) [1]	cell viability on Day 6 of B cells activated by αCD40 [2] [%]
anti-HA peptide antibody covalently attached to superparamagnetic microbeads (Pierce)	27000	–
anti-CD40 antibody (clone 1C10, eBioscience)	–	2 to 5
